Measured values published in PMC4359373, “Mechanistic insight into the conserved allosteric regulation of periplasmic proteolysis by the signaling molecule cyclic-di-GMP” (eLife, 2014).

Biological target: L. pneumophila CdgS9 periplasmic output domain (CdgS9^Output, residues 22-152) (L. pneumophila)
Test: […]; 25 mM Tris-HCl pH 7.4, 100 mM NaCl, 25°C; […]

## L. pneumophila CdgS9 periplasmic output domain (CdgS9^Output, residues 22-152) (domain or fragment)
  stoichiometry N: 2

## L. pneumophila LapG (enzyme)
  stoichiometry N (CdgS9^Output chains per LapG (2:1)): 2
